Results taken from patent publication US20220227846A1 (TEMPLE UNIVERSITY OF THE COMMONWEALTH SYSTEM OF HIGHER …, published 2022).

B1: ALZ.4A6 (antibody, V domains shown)
VH: QVQLVQSGAEVKKPGASMRVSCKASGYTYTAYYIHWMRQAPGQGLEWMGWINPHIGSTNYAEKFRGRVTLTRDTSIKTAYMDLDRLTSDDTAIYYCARVRAPRSISGTLNSYGMDVWGQGTTVAVSS
VL: DIVMTQSPSSLSASVGDRVVITCRASLRIGTFLNWYQQTQGRAPKLLVSSASTLQSGVPSRFSGSGSGTDFTLTINSLQPEDFATYYCQQSYSTTWTFGQGTKVELK
notes: Human mAb cloned from hybridomas made from B cells of a patient with Alzheimer's Disease
B2: ALZ.4G1 (antibody, V domains shown)
VH: EEHLVESGGALVQPGGSLRLSCEASGFTFRSYWMTWVRQAPGKGLEWLANIKQDGSDYYYVDSVKGRFTISRDNAKNTLYLQMNNLRADDTAVYFCARDARYRDTTWPQYYFYYFMDVWGKGTTVTVSS
VL: DIQLTQSPSSLSASIGDRVTVTCRASQSISNYLNWYQQKPGKAPKLLIYAASNLHTGVPSRFSGSGSGTHFTLTISSLQPEDFATYYCQLSYNNPRTFGPGTTVDIR
notes: as for B1
B3: ALZ.3H3 (antibody, V domains shown)
VH: QVQLVESGGGVVQPGRSLRLSCAASGFSFSTYGMHWVRQAPGKGLEWVAVISYDGSRKYYADTGKGRFTISRDNSKNTLYLEMNGLRAEDTAVYHCAKDLRRELGFGNRDYHYYGMDAWGQGTTVTVSS
VL: LTQPRSVSGSPGQSVTMSCTGTNSDIGGYNYVSWYQQHPGKAPKLMIYDVYKRPSGVPDRFSGSKSGNTASLTISGLQAEDEADYYCCSYAGTNNLIFGGGTKLTVLG

How the values were obtained:
Assay in all cases: SPR, calculated KD (Qdat software)
[1] = biological target: T1, Aβ42 oligomers (ADDLs/globulomers) (UniProt P05067 672-713)
T1 construct: domain: Aβ42; Oligomeric conformer of Aβ42; also called amyloid beta derived diffusible ligands
T1 sequence (P05067 672-713 limits assumed): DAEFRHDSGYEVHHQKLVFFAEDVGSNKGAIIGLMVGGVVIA
Method: (§1) MAb binding to Aβ42 conformers was measured by surface plasma resonance (SPR) (Table 1). Calculated affinity constants (KD) were obtained using Qdat software. […] The 3H3 binding data is qualitatively most similar to the 4G1 and 6E10 mAbs. 4A6 and 2C10 preferentially bind Aβ fibrils.

Aβ42 fibrils = biological target: T2, Aβ42 fibrils (UniProt P05067 672-713)
T2 construct: domain: Aβ42; Fibrillar conformer of Aβ42; also called Aβ fibrils
T2 sequence (P05067 672-713 limits assumed): as above
Method: as §1

[2] = biological target: T3, C-terminal biotinylated Aβ42 monomers (UniProt P05067 672-713, C-terminal biotin)
T3 construct: domain: Aβ42; also called CTB mono
T3 sequence (P05067 672-713 limits assumed): as above
Method: as §1

[3] = biological target: T4, N-terminal biotinylated Aβ42 monomers (UniProt P05067 672-713, N-terminal biotin)
T4 construct: domain: Aβ42; also called NTB mono
T4 sequence (P05067 672-713 limits assumed): as above
Method: as §1

[4] = biological target: T5, C-terminal biotinylated Aβ42 ADDLs/globulomers (UniProt P05067 672-713, C-terminal biotin)
T5 construct: domain: Aβ42; also called CTB oligo
T5 sequence (P05067 672-713 limits assumed): as above
Method: as §1

Row | Binder | Kd [1] | Kd (Aβ42 fibrils) | Kd [2] | Kd [3] | Kd [4]
1 | B1 | 1300 nM | 11 nM | 16 nM |  | 
2 | B2 | 8.8 nM | 14 nM | 15 nM | 1700 nM | 11.4 nM
3 | B3 | 40 nM | 2.1 nM | 3.4 nM | 240 nM | 35 nM
